# In US20220372125A1 (ASLAN PHARMACEUTICALS PTE, published 2022):
# T1: Mammalian expressed extracellular human RON protein (Gly25 to Thr957) with His-tag (human, UniProt Q04912 25-957)
# T1 construct: Expressed in ExpiCHO cells, purified on nickel; Position of the His-tag is told inconsistently; Written as one chain; also called RON ECD; RON ECD antigen; not shown: His-tag
# T1 sequence: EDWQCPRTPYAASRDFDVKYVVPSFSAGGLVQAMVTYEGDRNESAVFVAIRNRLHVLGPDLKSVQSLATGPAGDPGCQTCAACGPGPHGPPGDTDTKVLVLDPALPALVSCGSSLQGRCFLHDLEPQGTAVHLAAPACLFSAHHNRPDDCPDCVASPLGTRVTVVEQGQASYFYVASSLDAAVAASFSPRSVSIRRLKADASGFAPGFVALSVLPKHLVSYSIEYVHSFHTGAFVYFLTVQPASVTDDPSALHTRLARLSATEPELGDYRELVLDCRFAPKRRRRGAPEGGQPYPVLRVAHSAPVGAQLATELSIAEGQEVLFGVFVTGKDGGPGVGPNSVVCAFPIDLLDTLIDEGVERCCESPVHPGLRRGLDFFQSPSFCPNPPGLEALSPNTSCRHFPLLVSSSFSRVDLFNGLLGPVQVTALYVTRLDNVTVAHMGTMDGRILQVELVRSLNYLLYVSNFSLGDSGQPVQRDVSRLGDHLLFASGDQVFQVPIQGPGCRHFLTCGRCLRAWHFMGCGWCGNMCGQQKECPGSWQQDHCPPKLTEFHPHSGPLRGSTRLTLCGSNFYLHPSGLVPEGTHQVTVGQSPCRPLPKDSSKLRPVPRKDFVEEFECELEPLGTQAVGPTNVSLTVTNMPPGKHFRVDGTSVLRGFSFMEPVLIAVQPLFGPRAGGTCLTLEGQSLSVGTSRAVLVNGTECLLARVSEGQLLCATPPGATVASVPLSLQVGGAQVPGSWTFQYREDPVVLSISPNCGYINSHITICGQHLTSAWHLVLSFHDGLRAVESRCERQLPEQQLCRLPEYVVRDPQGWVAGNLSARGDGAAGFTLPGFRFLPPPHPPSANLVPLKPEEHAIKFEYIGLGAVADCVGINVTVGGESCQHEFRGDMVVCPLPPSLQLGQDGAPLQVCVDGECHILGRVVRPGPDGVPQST
# B1: Narnatumab (antibody, V domains shown)
# VH: EVQLVESGGGLVQPGGSLRLSCAASGFTFSSYLMTWVRQAPGKGLEWVANIKQDGSEKYYVDSVKGRFTISRDNAKNSLNLQMNSLRAEDTAVYYCTRDGYSSGRHYGMDVWGQGTTVIVSS
# VL: EIVLTQSPATLSLSPGERATLSCRASQSVSRYLAWYQQKPGQAPRLLIYDASNRATGIPARFSGSGSGTDFTLTISSLEPEDFAVYYCQQRSNWPRTFGQGTKVEIK
# B2: 9F2 (antibody, V domains shown)
# VH: QVKLQQSGPGLVAPSQSLSITCTVSGFSLTSYGVHWVRQPPGKGLEWLGVIWAGGTTNYNSALMSRLSISKDNSKSQVFLKMNSLQTDDTAMYYCASYDYDGYFDVWGAGTTVTVSS
# VL: DIVLTQTTAIMSASPGEKVTMTCSASSSVSYIHWYQQKSSTSPKLWIYDTSKLASGVPGRFSGSGSGNSYSLTISSMEAEDVATYYCFQGNKYPLTFGAGTKLELK
# notes: Mouse monoclonal antibody from a hybridoma; kappa light chain; also called Antibody 9F2; anti-RON antibody 9F2
# B3: chimeric 10G1 (mouse Fab with human Fc backbone) (antibody, V domains shown)
# VH: EVKLEQSGGGLVQPGGSRKLSCAASGFTFSSFGMHWVRQAPEKGLEWVAYISGGSGTFYYADTVKGRFTISRDNPKNTLFLQMTSLRSEDTAIYYCARSTTVLDYWGQGTTLTVSS
# VL: DIVLTQTPSSMYAFLGERVTIICKASQDINNYLNWVQQKPGKAPKTLIYHADRLADGVPSRFSGSGSGQDYSLTISSLEYEDMGIYYCLQYDDFPPFTFGSGTKLEIK
# B4: 3F8 (antibody, V domains shown)
# VH: EVKLQESGGGLVQPGRSLKLSCVASGFTFSSFWMHWVRQSPEKGLEWVAEIRLKSNNYATHYAESVKGRFTISRDDSKSSVHLQMNNLRTEDTGIYYCIPPYYYTVDYWGQGTSVTVSS
# VL: DIVLTQTPKVMSTSVGDRVSVTCKASQNVNTNVAWYQQKPGQSPKALIYSASSRYSGVPDRFTGSGSGTDFTLTISNVQSEDLADYFCQQYNTYPLTFAAGTKLELK
# notes: Mouse monoclonal antibody from a hybridoma; kappa light chain; also called Antibody 3F8; anti-RON antibody 3F8
# B5: 3F6 (antibody, V domains shown)
# VH: EVKLEESGPGLVKPSQSLSLTCSVTGYSITSGYYWNWIRQFPGNKLEWMGFMSYDGSNNYNPSLKNRISITRDTSKNQFFLKLNSVTSEDTATYYCSRALAYYGNFDYWGQGTTLTVSS
# VL: DIVLTQTPSSLSASLGDRVTISCSASQDISNYLNWYQQKPDGIVKLLIYYTSSLHSGVPSRFSGSGSGTDFSLTISNLEPEDIATYYCQQYNKLPWTFGGGTKLEIK
# notes: Mouse monoclonal antibody from a hybridoma; kappa light chain; also called anti-RON antibody 3F6
# B6: 7H11 (antibody, V domains shown)
# VH: EVKLEQSGPELVKPGASVKISCKASGYTFTDYNMHWVRQPPGQSLEWIGFIYPYNGNSGYNPNFKTKATLTMDISSSTAYMEVRNLTSEDSATYFCASLYYLGYFDVWGAGTTVTVSS
# VL: DIVLTQSPVSLAVSLGQRATISCRASKSVSTSAYNFMHWYQQKPGQPPKLLIYLASNLESGVPARLSGSGSGTDFTLNIHPVEEEDAATYYCQHSRELPYTFGGGTKLEIKR
# notes: Mouse monoclonal antibody from a hybridoma; kappa light chain; also called Antibody 7H11; anti-RON antibody 7H11
# B7: 3G4 (antibody, V domains shown)
# VH: EVQLQESGPELVKPGTSVRISCKASGYTFTSYYMHWVKQRPGQGLEWIGYIYPGNVNTKYNEKFKGKATLTADKSSSTAYMQLSSLTSEDSAVYFCARLGYYRYGGAMDYWGQGTAVTVSS
# VL: DIVLTQTPAILSVSPGERVSFSCRASQSIGTSIHWYQQRTNGSPRLLIKYASESISGIPSRFSGSGSGTDFTLRINSVESEDLADYYCQQSDSWPTTFGGGTKLEIKR
# notes: Mouse monoclonal antibody from a hybridoma (supernatant or purified); kappa light chain; also called Antibody 3G4; anti-RON antibody 3G4
# B8: 6A9 (antibody, V domains shown)
# VH: EVKLEESGPGLLKPSQSLSLTCTVTGSSITSDYAWNWIRQFPGNKLEWMGYIGYSVGTSHNPSLKGRISITRDTSKNQFFLHLNSVTTEDTAIYYCARRPLYFYYAMDFWGQGTSVTVSS
# VL: DIVLTQSPSSLSASLGDRVTITCRASQDISKYLNWYQQKPDGTVKLLIYYTSTLHSGVPSRFSGSGSGTDFSLTITNLEQEDIATYFCQQGNTLPRTFGGGTKLEIK
# notes: Mouse monoclonal antibody from a hybridoma; kappa light chain; also called Antibody 6A9; anti-RON antibody 6A9
# Experiments:
# [1] = molecular target: RON (Macrophage stimulating protein receptor), full length, on cells (human, UniProt Q04912 25-1400); assay: cell-based or functional assay
# [2] = molecular target: T1, Mammalian expressed extracellular human …; assay: KinExA, RON-HIS; 95% Confidence Level 1.05 x 105 to 1.61 x 105
# [3] = molecular target: T1, Mammalian expressed extracellular human …; assay: KinExA, apparent Kd, column 'Kd by Kinexa (nM)' [continued]
# Description: Titration curves were generated using indicated fixed concentrations of extracellular RON antigens measured by calibration free concentration analysis (CFCA). Increasing concentrations of RON antibodies were titrated for measurement of binding. Apparent Kd values were determined from an average of the two curves and plotted in table shown.
# This limitation of the SPR method for highly avid antibodies has been described previously and the use of kinetic exclusion assay has been proposed as a way to overcome this limitation allowing measurements in the sub nanomolar range. We employed the Kinetic Exclusion assay (KinEXa) method to measure the Kd values of all of the new antibodies using a fixed concentration of the recombinant mammalian expressed protein as the target antigen and a twelve-point dilution curve of each antibody. We dropped antibody 9F6, in this assay as it seemed less avid than the other antibodies in preliminary SPR binding assays. The remaining seven antibodies gave exactly accurate results in duplicate analysis (FIG. 6).
# (§1) Mammalian produced recombinant extracellular His-tag RON protein was used for affinity measurements. Affinity determinations were carried out in the fixed antigen format. Antibodies were titrated as two-fold dilutions into a fixed concentration of RON antigen. RON protein was detected using mouse monoclonal to 6×His-Tag (Dylight@650, Thermo Fisher). All affinity measurements were carried out using the KinExa 4000 (Sapidyne Instruments).
# [4] = molecular target: T1, Mammalian expressed extracellular human …; assay: KinExA, RON-HIS; 95% Confidence Level 1.74 nM to 4.11 nM
# Description: as §1
# [5] = molecular target: T1, Mammalian expressed extracellular human …; assay: KinExA, RON-HIS
# [6] = molecular target: T1, Mammalian expressed extracellular human …; assay: KinExA, RON-HIS; 95% Confidence Level 92.36 pM to 219.67 pM
# Description: as §1
# [7] = molecular target: T1, Mammalian expressed extracellular human …; assay: KinExA, RON-HIS; 95% Confidence Level 2.30 x 106 to 2.74 x 106
# [8] = molecular target: T1, Mammalian expressed extracellular human …; assay: KinExA, RON-HIS; 95% Confidence Level 2.68 x 105 to 3.10 x 105
# [9] = molecular target: T1, Mammalian expressed extracellular human …; assay: KinExA, RON-HIS; 95% Confidence Level 8.64 nM to 18.70 nM
# Description: as §1
# [10] = molecular target: T1, Mammalian expressed extracellular human …; assay: KinExA, RON-HIS; 95% Confidence Level 167.21 pM to 304.60 pM
# Description: as §1
# [11] = molecular target: T1, Mammalian expressed extracellular human …; assay: KinExA, RON-HIS; 95% Confidence Level 9.65 x 105 to 1.60 x 106
# [12] = molecular target: T1, Mammalian expressed extracellular human …; assay: KinExA, RON-HIS; 95% Confidence Level 448.10 pM to 200.01 pM
# Description: as §1
# [13] = molecular target: T1, Mammalian expressed extracellular human …; assay: KinExA, RON-HIS; 95% Confidence Level 2.24 x 106 to 4.45 x 106
# [14] = molecular target: T1, Mammalian expressed extracellular human …; assay: KinExA, RON-HIS; 95% Confidence Level 2.55 x 105 to 2.81 x 105
# [15] = molecular target: T1, Mammalian expressed extracellular human …; assay: KinExA, RON-HIS; 95% Confidence Level 5.94 nM to 11.84 nM
# Description: as §1
binder,measurement,setting,value
B1,"IC50 of inhibition of MSP induced ERK phosphorylation (AlphaLISA SureFire p-ERK, T47D cells)",[1],14.9 nM
B2,kon,[2],129000 M⁻¹ s⁻¹
same,Kd,[3],2.7 nM
same,Kd,[4],2.74 nM
same,koff,[5],0.00353 s⁻¹
B3,"EC50 of antibody dependent cellular cytotoxicity (xCELLigence, T47D targets, human NK cells, E:T 10:1)",[1],3 pM
B4,Kd,[6],0.146 nM
same,kon,[7],2.44e+06 M⁻¹ s⁻¹
same,Kd,[3],0.15 nM
same,koff,[5],0.000358 s⁻¹
B5,kon,[8],270000 M⁻¹ s⁻¹
same,Kd,[9],13.4 nM
same,Kd,[3],13.4 nM
B6,Kd,[10],0.23 nM
same,Kd,[3],0.23 nM
same,kon,[11],1.25e+06 M⁻¹ s⁻¹
same,koff,[5],0.000286 s⁻¹
B7,Kd,[12],0.305 nM
same,"IC50 of inhibition of MSP induced ERK phosphorylation (AlphaLISA SureFire p-ERK, T47D cells)",[1],68 nM
same,kon,[13],3.18e+06 M⁻¹ s⁻¹
same,Kd,[3],0.3 nM
same,koff,[5],0.000968 s⁻¹
B8,kon,[14],266000 M⁻¹ s⁻¹
same,Kd,[15],8.57 nM
same,Kd,[3],8.6 nM
same,koff,[5],0.00228 s⁻¹
